Measured values taken from patent US20240026407A1, “MODIFICATION OF SAPONINS” (GLAXOSMITHKLINE BIOLOGICALS SA, priority 2020, published 2024).

How the values were obtained:
Format in all cases: biochemical, Quillaja saponaria
[1] = Experiment 4-4: screening of glucosidases for deglycosylation of QS-18 in crude bark extract (1 in 20 dilution) to QS-21; settings: CBE 1 in 20 dilution, pH 6, 25 degC, 18 hours; % conversion of Middle Peak by UV HPLC
In short: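 Clarified glucosidase lysates were incubated with pH 6 crude bark extract (1 in 20) in potassium phosphate buffer pH 6 for 18 h at 25 °C with shaking, then quenched with MeCN. UV HPLC with MS/MS-supported peak identity; activity is % conversion of the extract's Middle Peak (QS-18 family) toward the QS-21 peak.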

[2] = Experiment 4-2: screening of glucosidases for deglycosylation with purified QS-18 (1 mg/ml) at pH 6 and 30 deg C; settings: pH 6, 30 degC, 18 hrs, clarified lysate, LCMS/MS
In short: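 Enzyme activity derived from LC-MS/MS analysis after MeCN quench. Substrate QS-18 (1 mg/ml final) was exposed overnight (18 h, 30 °C, pH 6 phosphate buffer) to clarified lysates containing candidate glucosidases.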

[3] = Experiment 4-1: screening of glucosidases for deglycosylation with purified QS-18 (0.04 mg/ml) at pH 7.5 and room temperature; settings: pH 7.5, room temperature, 20 h, clarified E. coli lysate, QS-18 2150 to QS-21 1988 by LCMS/MS
In short: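 Deglycosylation measured by LC-MS/MS as % conversion after 20 h room-temperature incubation of QS-18 phenyl fraction (0.04 mg/ml final) with polymyxin B/lysozyme lysates, pH 7.5 phosphate, of E. coli BL21(DE3) expressing each enzyme; MeCN quench. Positives exceeded negative control by >3 S.D.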

[4] = Experiment 4-3: screening of glucosidases for deglycosylation with QS-18 in crude bark extract (1 in 2000 dilution) at pH 7 and 30 deg C; settings: CBE 1 in 2000 dilution, pH 7, 30 degC, 1 h; % conversion of QS-18 by LCMS/MS

B1: 247 (protein, listed as Arthrobotrys oligospora)
chain: MDATTLKEIEETLAQLTLEEKISLLAGKDFWRTVPLPEKQIPSIKVSDGPSGARGDTFSGGQKAAFFPSGILMGATFNPELAYETGELLSEEVRAKSASVLLAPTACCHRSPLGGRNFESYSEDPLLSGKMASGYIRGVQSRGIAATMKHFVANEQETWRLYVDETIDETTLREIYLKPFEIAMREGQPWAIMTAYNIINGVHCDSHPLTLKQVLRGEWNYEGLVMSDWFGCNSMVESLLAGLDLEMPGPARKRPIKEFVEAAEKDESVRKAIDDSARRILTLIAKVGKWKDMTPEAPEYSRNDPETGKLIRRAGGEGTVLLKNEGKTLPLQPGSLKKVAFIGPNAKATVAGGGGSANLEPNYLTQPYETFVTAIKEINGDIEVPWVQGCIIDRWVPNIDVEGGFCRVGGPDSEAGLFLEWFRGYEATGEPVATTVFKTSNAFLWDSRPTSISPSEEFSVRFSGQISVPEDGKYNISLSTITASKLYLNGELLIDNWDFKERGNLMMNVGSEEVVKTIELKKGEWYPILVHNSSIWPKDSPRDPPMEEIGALGIRLGVAPVYDNAVLIAEAADAVKDADAVVIVVGLNNEWESESYDRSDTKLPNNQDDLIEEIAKVNQNVIVVNQSGAPVDMPWAENSNVKAIVQAWYAGQEAGHVIADVLLGKQNPSGKLPLTFPIKVQDNPSYLYFPGRDQKVEYTEKLMVGYRYYDTENVQTRFPFGYGLSYSTFSIGEPSLSTAELTEGQTFTANVDVSNTSNVAGAEVVQLYVKRPASTSSIKRPVKELKGFKKVHLGTGETATANITVDDKSLGIWSTEAGKWVVEAGDYEVLIGTSSVQDELKPAGKITVKAAWSWI
Expt 4-4 % conv [1]: <3%
Expt 4-2 % conv [2]: 2.0%
Expt 4-1 % conv [3]: 18.0%
Expt 4-3 % conv [4]: 2.7%

B2: 101 (protein, listed as Meira miltonrushii)
chain: MSAPIDPQALLAQLTLEEKIQLTAGADLWRTVAIERLKIPYIKLTDGPIGARGGGDFHDSTPSTLFPSPSCLGSTWDTKLAYEMGKQIALDGIEKQCHVILGPTINGQRDPRAGRFFESYSEDPTLMGFLASHWVQGVQSCGVGATMKHFVANEAEYDRRNNSSDVSIEALREVYLEPFRIIMADMQRKASAHDDPFKFQPACVMTAYNRVNGVSSSENDAMITDILRKEWGFDGLVMSDWFAMHANAFNATDLEMPGPTIFRTIEKTIDTIKKGDEEGKKMAKDLDRCVLKVLELVKKVHKLGYQKSVADEVEKSVPIEQVGPAIRKIGAEGAVLLKNDNDILPIIPKKDLKILCVGAPWIEAVQSGGGSANLTPQKVMQPLSTFKDALKNEKGGQDVTVNHHNGIGIHNFVKPLEQSIKLDFLTGRQPGKGEVVASTTGQKATLSTMLPKPKEVPWNDYWVRGSLDLEPVKKDCQLRFGLLGLGTITAYLTIDGDKSKQSIWNFDGETDLFESIVNPLRNWQENVITVKAGQKIQIEAHFVPRLVGKEHGDAKYGGFQIGMEEVDDEDALIAEAVQQAKEADLTVIMTAVGKDWESEGFDRPTIFLPRRQDDLVNQVTKACPGKTVILNLTGSVVEMPWRNDATGIVQCWYGGQEGAVSLSDILLGRGDAPASGRLAHVWPARIEDHPSGVDEAYFPGTHLPNDKEGPHTEYVEGRLVGYKYYNKNKNANQPAFHFGEGLGGYTTFATEGPVVKGSTKINKSSLPLSLTVKSTNKGKRSGKEVAQIYLRPHVPLSDAKDEPIQRLAGFAILRPAPGQSEEAEIQLYQETFSHWDEKSRSWQVKQGDYDLVLARSARYGEELGKATITIDQSWSWTGTGVN
Expt 4-4 % conv [1]: <3%
Expt 4-2 % conv [2]: 1.0%
Expt 4-1 % conv [3]: 28.2%
Expt 4-3 % conv [4]: 1.8%

B3: 169 (protein, listed as Bifiguratus adelaidae)
chain: MASSRVTELLANLTLEEKVYLLSGSDNWRTFPVPRLGIPAVKVTDGPIGARGDSFNTGQNAACFPAPIAMASTWDTDLLLKVGSALGEEAKSKAAQVLLAPTINMHRSPLNGRNFECYSEDPFLTGKMATAFVSGLQSQGVAAAVKHFACNDSEFERDSISSEITERPFREIYLRPFEMVVRDADPWCIMTSYNKINGVFASENPKLLKEILRNEWNWKGMVMSDWFGVKSTVPSVLNGNDLEMPGPPAWRGEKLLAAIKQGELKEEDLNESVQRVLSFVERVGKFEDPEERPETYLAKPEITELIRNVSADSIILVKNEQSLPLNKDALKSVAIIGPNAKTAVTMGGGSSKVQAPHEVTPYEGIAAALGEDVDIRHSVGAYTHKLIPQLDDRLQTPDGELGYIMDVYESKNFGETPTDSKVLNNTRVIIHDAGFKDVDFRSFSAKVRARYTAKHTGPHTFGIASVGLSKLYVDGKLVIDNWTSQVRGDIFFGFGSREEKAQYDMIEGQTYEILIDYMTGHELMAMLRFGLLEPLASDVVEQAVKVAEGTDVAVVVVGLNNEWETEGYDKTELELPGGQNELIEAVANVNKNTIVVVQCGSPVVMPWIDKVSGVIVAWYGGQETGHSIADVLFGKVNPSGRLTQTFPKRLEDNPAFDNYPGENGKVIYGEGLFIGYRYYQRRKVDVFLPFGFGLSYTTFDYGNIKLDNSELDPQAHITVSVDVTNTGSIAGKEVVQVYVHDNHPRLSRPLAELKGFSKVELAPGETRTVQITLDKHAVAFYDDKEAVWVAEAGEFELHIGSSSADIRGKVPFTVTKSLSWTF
Expt 4-4 % conv [1]: <3%
Expt 4-2 % conv [2]: 2.1%
Expt 4-1 % conv [3]: 19.8%
Expt 4-3 % conv [4]: 2.4%

B4: 5 (protein, listed as Actinobacteria bacterium)
chain: MSELVENLILRLTLEEKATLTSGTDMWNAHGIDRLGIPGLKVSDGPVGVRGERWVGTTSACTPCGTALGATWNMELIEQVGVVLGEEAKSKSVDIVLAPTVNLHRNPLAGRNFECFSEDPFLTGLAATAIINGIQSAGVGACVKHFVANDSEYQRHTISSQVSERVLRELYLLPFEMVIRDTDVVAVMSGYNRLNGTYCAEHDWLLNQILKQEWGFDGLVMSDWWGTMSSASAAGGLDLEMPGPAKYLGPQLAQMVADGTLDATALDEMARRILHVSERLGLLAHSSPATPSRAAERSEDLPTHQAILRSAAEQAVVLLTNRLIEGQTVLPLDVSSLRHVAVIGPSADTAAVLGGGSAAVNPHYAVSILQGLQEALPSHVKVTHEIGVHASHSAPPIDSRCLRSAVQPDKPGLDVEYFANREFAGTPACVEHAAQPRLVWMGSEAASGVATNNLSVRVSGTFIARSTGTHTFALVTGGTGGRVLLDGESILDNYTGQESGTAFFGLGSSEILAEVYLEQGEERGIIGEFTGYEGMDVAAFLIGHREPLAADGIERAAKAAAEAEVAIVVVGLDQDSETEGEDRKTISLPGEQDALLRAVIAANPRTVVLVNAGSVVDLAATEGAAAIAQTWYLGQETGNAVAAVLTGSVDPSGRLPTTFGKKVQDWSSHLNYPGEFGEVLYGEELFMGYRGFDQQQIEPAFCFGHGLSYTSFDWSGATLSTSSLSQTELLDGAQFSLSAEVTNTGDTSGYEVLQCYVQRDQSQSGRPEQELCGFVKVHLSPGQTATVNIPLNFRSCAVWDQPSRSWLVHPGEIKFRLSSSSRDTRSTAAFQVTT
Expt 4-4 % conv [1]: <3%
Expt 4-2 % conv [2]: 16.6%
Expt 4-1 % conv [3]: 70.8%
Expt 4-3 % conv [4]: 1.4%

B5: 208 (protein, listed as Anaerolinea thermophila)
chain: MNVHNQDTIEQKISELLSQMTLSEKVSLLSGKDAWRTMPIPRLGIPSITMTDGPHGVRSSYPEAGRKAGPTTCFPTGVSMAATWNTALIEKVGMALAEETRAMDCDILLGPCVNIVRHPLAGRNFESYSEDPYLNGKMGVAWVKGLQSKKVGASLKHFAANNQEFERHRGSSELDERTLREIYLPHFEMVVKEAKPFTVMCAYNRINGVYASQNRHLLREILKEEWGFDGVVVSDWGANHTIFESVENGLDLEMPGPARYYGKLLEDAVHNWQIDEKVIDDAVRRILRILFRAGKFDDPATLPPGSVNTPEHQALALEVAEEAITLLKNEADLLPLDIEKIRTLAVIGPNAAEDRIGGGGSSYVDPPYRVSPLEALRARFGDKIQIEYEKGCDNYHQPPVLGADWLGVNGLKVDFFDNPALQGQPAGTISIPKAEMWMWANSLPASKITSPRFSLRASGSFTPLESGNFTFFLVNTSTCRVFINGNKVFENTSKPKEHRAESEVQFQTTLEEGKSYDLVIEYLKDNDEEFAFWKLACMRVFGPGEDNRIQKAAELAAKSDVALVFIGMPEGFESEGYDRPDMRLPGPQDELVRAVLKANPRTVVILNAGSPVEMPWAEDVPAILEAYYPGQEGGNAVAKILFGEINPSGKLTVTFPRRLEDTPAYINYPGDRKVYYGEGIFVGYRYYEKKKVSPLFPFGHGLSYTTFEYENLTLPSEVNIGESVKVQVTVKNTGKRAGKEVVQLYVGDPESSLVRPPKELKGFAKVELQPGESKTVSFELDERAFAFYDPYQSRWVVEPGEFQILVGSSSQDIRASAVLRMA
Expt 4-4 % conv [1]: <3%
Expt 4-2 % conv [2]: 94.0%
Expt 4-1 % conv [3]: 100.0%
Expt 4-3 % conv [4]: 26.0%

B6: 207 (protein, listed as Bifidobacterium dentium)
chain: MSESTYPEVNDLTLEEKASLTSGGDAWHLQGVEAKGIPGYMITDGPHGLRKSLASSTGETDLNDSVPATCFPPAAGLSSSWNPELIHQVGEAMAEECIQEKVAVILGPGVNIKRNPLGGRCFEYWSEDPYLAGHEAIGIVAGVQSKGIGTSLKHFAANNQETDRLRVSANISQRALREIYFPAFEHIVKEAQPWTIMCSYNRINGVHSAQNHWLLTDVLRDEWGFEGIVMSDWGADHDRVASLNAGLNLEMPPSYTDDQIVYAARDGRIQPEQLDRMAQGMIDLVNKTRAAMSVEGYRFDVDAHDEVAHQAAVESMVLLKNDDAILPVASDAKVAVIGEFARTPRYQGGGSSHITPTKMTSFLDTLAARGVDAKFAPGFTLDLEPADAAMAADAVEVAKGADVVLMFLGLPEAAESEGFDRETLDIPAKQVELLEAVAAENKNIVVVLSNGSVVSVAPWADNAKGILESWLLGQAGGPALADVIFGNVSPSGKLAQTVPMDINDDPSMINWPGEEGHVDYGEGVFVGYRYYDTYDKAVDYPFGYGLSYATFEVSDVKVAKTGANTASVSAVVKNTSDVDAAETVQVYVAPGKSAVARPIHELKGFRKVFLKAGESAEVSFDLDERAFAYWSEKFDDWHVESGEYAIEVGTSSRDIAGTGVVELDGDGKAEPLTEWSTFGEWSDDPVGSKIVASVYAEGEAGNLPKMPDNDMMRMFLRSMPINSMPMLMSEGGKKITAFMLDEYAKVTE
Expt 4-4 % conv [1]: <3%
Expt 4-2 % conv [2]: 4.4%
Expt 4-1 % conv [3]: 27.4%
Expt 4-3 % conv [4]: 0.2%
